Results as given in the DeepSol protein solubility set.

Assay: soluble on expression in E. coli; label from the status in PepcDB or PDB records

Soluble on expression in E. coli, not soluble:
MAHHHHHHMCVHTFVRMNAWMCSSLSITQQNTITPPHYMQNSAFRVASLLQSRHRRGICDEGESTLAKLTQGVEMFLQHAADVPPVMLEKLSEVGDADTSTNGCSERHDDVDESMDEAEVHLSVVAGVLEPREMPKNVSTMSGLLLPTADNRKALERQKVEEAQAMLNLLAALTANNKKENTIGALTGTSEAEVDDESTTTSDESVVICYADELESDTTSSCSEADAQQEPQRSARIIELN
MGSDKIHHHHHHMSINVLIVDDSLSACRVLSRHFLLLDVDKVEFCRDARSAIRTLSKYSDDYQIVVVDLHMPEVDGIEFLMRLSKMEFKGGIIIASGMESRIVEAASQLVEASKLRLLGALMKPVTTEQLRVCVERYRLMAFQGNGVRHKGLMSIDEIRRAINSNKIIPYYQAQVDIASGKIKGFEVLCRLQQGTRLQLITPDKFIDVAECNNALNSLTTKLLNNAIPEWALISQFESCKQCHLSINLTPKQLNQSGWHTRLMQYCEQNLLSPSRLTVEITENQVLDKQRQHSTISQLRMNRIGVAIDDFGTGYTNLSQLCTLPISELKLDRSLVHGIHKDPVSQTILKSMQAISGKLGIHLVAEGVEDIHDLNYLEQIEDISLQGYLICRPKPYSELVRWLKARERLVQA
HRYGDEIDALVEAFNRMRESLAVAYQQQQGMLQAVRESEALLRAIARRIPNGGVWVVDTDGRYIMFEGSLVESLGLSGQEALGRMPGDLFGEPLADRLVGCYRLALAGGTLSEEIEYRERVLWIQFAPLEDEHGAVMAAVALGID
MGEIIKESDKRVALKLPANVTEIDDRAFLGCTRLESIDLSACTSLTAIKLAAFKGCTSLKAVQLPQSLTTIGHFAFEGCTALKEVELPQNLTVIGTDAFKGCSIETLVIHCDIKGTIIENFTKKDEVNKNVKKLTLGKGVTTIGNYAFYIIGYSKLAAVDFSACTALTEIGENAFAYSKLTNVNLSACIKLTEIGKSAFSNCTDLTNVDLSGCTALTTIGEQAFNSCYEATVKLPTGITAIGNEAFGENDEDFLCKNVLIPRSHAATIKPLVTASDYPEDRIREY
MNPGGILMTTDIYFSHNNPHDPYAHHTTELNRDTHHLWVVLTTDSDDFDADSFTTEVIRITGYSRHEVNNGLNAMAAMTNLPHLRAIQERYYFLSIRYLASIMIAVAKADPTLWEELDLRITDALTPVTAGEVMIQSSTLSKRIAAWIKELDPEPTPEPIPKEDYVHVHTTDEATYVRIKISGPNRLILNDIITQLKDTDTEDSLPEALMAFLMEKIQLKITKYLFTPHKHPEQVWSPDYGDIGPEAYANATLVCAKDLDEVAGATEKSYTPSEKMKALIRARDGHCRFPGCCVPASKCQVDHIIPWAEGGPTAAWNLQLLCQRHHNMKTDGRFTADANGLAEIRWIGPMDVPAVTRPTGPLVKAMPRGIWGQVLRDRIQARFERIRVRALNKEDLEHHHHHH
MSLQGLWIYPEDTEVLGVACKSLLKALTPRYQKVALFSPISGGCESLEECESLNPLEFHSAISKQKALELASTAQEELLFETILKRYDELQSTHDFVINLGCAPKFFLNAPLDLNTILAKHLNASVVAVAQTSLEYLKAMHSHILKKEAPFAVGLFAGETLEKPHFLSMSLCKQQCELEADLIESVLQIKSEIITPLAFQRGLEKKAKKQIKKVVLPESEKMKGFEGHHHHHH
MDILSDIANAVLPQDVVSKVESKRAVAVLRGTAVFGTVWLTQKAEGEETEFEGEIKGLSPGLHGFHIHQYGDSTDGCTSAGPHFNPCKMNHGGRDSVVRHVGDLGNVEAGADGVAKIKFSDKVVSLFGANTVIGRSMVVHVDRDDLGQGIDDKAEESLKTGNAGARAACGVIALAAPA
GPGSMGRNKKSKATAHAQACSDGEREEEHGAVPTTTLPARAEGCEEENGASAAAADGAQGTPDHHSGRCSERGRDSDDDAPKTKKEYRGNRLKKLEVQRKKGKGKGANEDDKAEEAAREGDAHEEPLVVTRQRAVEVLYCPICTFPAEMCEFSGIVEKCRPWLLEHAADLADAEERGRKRRILTEKDRLEAMLEGRGVKKALERIVVLEVEKRTGRRMITSVFGMDLFGFNLKDVSRDWRKRFSCGAGVRAAEEGKHQDCIDIQGNVVDQLADMLITKYKIPKESVYLMEGKKKVPYPY
MGSDKIHHHHHHMAGKQLLLMDGIHKRFGPLIVSAGVTLDVEENEIHALLGENGAGKTVLMSILCGVLSPNEGQIVFKGRPLKLGSPREAIKHRIGMVHQHFMLVPNLTVAENYVLGQGSPFSMIRDMRAVHARILELSDRYGLDVAPDALVSSLSVGERQRVEILKVLYHGIELLILDEPTAVLTPQETDRLLHLLRQLVADGKTVIFISHKLDEVMRVSDRVSVMRDAKVVRTVKTSETTARELARMMVGRDVLMYLPRAPLEPGRVVLSVEHLSCDGEAGLPALRDVSFEVRANEIVGIAGVSGNGQSELALALTGLLPVASGSVTLDGTQLAGLSSYEINQLPMAHIPEDRHRMGIVLPLPLTENVILQRFDKPPFSSRGLLDLNEITRQTRDLMRRFKVKASGPGDRIRNLSGGNQQKLVVGRELDRRFDFLLINQLTRGIDIGATELVMHKILEQRSAGKAILLISTELEELFTLSDRILVMYEGRLVGEIPPDRSRLEEIGLLMAGKSPLSAA
MGSDKIHHHHHHMTRADYLNQLEQALFQLHPSARQEALDYFNEYFDEKDNDEEAIIELGTPDEAAKEIIANLPEDALIPEKDQASPHSSKPFDFNFDFDFQFDWENFFNNFKHSAYQARERIKLTSKIEELPEFSNLQISLEDQALSVQSYEGEAVLLHNPVSEDGSYQAFDYQLVQDSLYISSKPTPNHLYFSNNQISSAILKIPKKLLPLTNLNLKTADSSLTIVDVQVCEQMVVNAKDSSISMTKVSCPSSALQLEDSTLTISDGQMSELKLEASDAVITLSSMSLSDARITLEDCVWKLKDFVLEKSLNCQAEDSVLTYKPSTDISLDIWEEDSSLKLPKDKAFTMMKEGDITHLSYKQENSPAQLVIHCQDCQLSVG
MLDDCEASGFINDKRYAELLVRSNIARGHGPIRIRQAIAQKGLTKDCIEAALIATDYDWFELAKAKAKAKAIKKYGVPKVTEVKGSQSRELIAKEKAKRVRFLLSQGFSYEQVIYALDYDPLEDNDD
MKINSPLEAYKYLPQTNCGECGQPTCMAFASTLIDRSGKTTDCPPLIKEKKFAKKLAELDRLLAPEIRQVTIGVGERAANIGGDDVLYRHKLTFFNKTKMFFDVADNMDEAAIVERVKKISDYKKFYVGRNLLLDGVAIRAASNDPAKFATAVKKVIENTELPVILCSFNPAVLKAGLEVAKGKNPLLYAANKDNWKEVGELALEYNVPVVVSAFNDLDGLKTLAKTFAEAGIKDIVLDPGTYPTGKGLKDTFTNFLKIRRAGIMGDTEIAYPIMAMPLTAWMAGIADPVSASYWETVLASIFTIRYGDIMLLHSMEPYATMPEVHLAETIYTDPRSPVAVDSKMYKVGNPTADSPVLFTTNFALTYYTVESDLASNGIDCWLLAVNTDGIGVEAAAAGGQLTADKVKDAFEKSGFDLKSDVTHNSVVIPGLAARLQGDIEDKLNVKVMVGPMDSGRLPGWMEKNWPPKK
MEKIKIIVASDSIGETAELVARAGISQFNPKQCKNELLRYPYIESFEDVDEVIQVAKDTNAIIVYTLIKPEMKQYMSEKVAEFQLKSVDIMGPLMDLLSASVEEKPYNEPGIVHRLDDAYFKKIDAIEFAVKYDDGKDPKGLPKADIVLLGISRTSKTPLSQYLAHKSYKVMNVPIVPEVTPPDGLYDIDPKKCIALKISEEKLNRIRKERLKQLGLGDTARYATEARIQEELNYFEEIVSEIGCPVIDVSQKAIEETANDIIHYIEQNKSKLEHHHHHH
MTDDKKMFDINEFLKRHLFVKNWVNYRQQSYTKYELMQLIESVEAALSVDDTLAKISPPVTIVGDIHGQYPDLVRVLCNQNSKEDAKKKAAYGFCNSRFVFLGDYVDRGHHSIECISLVFALKVVYPTNYILLRGNHETKSINYTYGFREELVNRLGPIDGFEIWERFNVAFSWMPLACLVGHKILCMHGGISPKLHSLKEINEIDRPVAEILPDSLAQDLLWADPADGQGAMTVRSTPEYVPNGVRGLSFIFNEAAVRDTCKRLNINLIVRAHQMIPEGFKFFADQKLLTIFSAPRYMNETDNHGATLRVETDGKLNIGRFRHKKLLHANSADEITRGDDIPNLERKKSGSMPVKHLKTSSSSSPSHSNGKSKGGEGLSLGKI

Soluble on expression in E. coli, soluble:
MSDCNWTNPLCNTSLLLASGYALWSCASKKNKKETKTETKKSHDCPPQTIEPVKDEKNSNSEEKKTTSSNNEVPPQKKLIGNDEVKKEKKKSEDDLLDVKKTASKEDDKKRMDKKDPSKKLSKEKLREEKKEQSKKVNKEKKMNKSESVDEDNEQPPEPGSDPRKIWAFKAAKMKCQAISKLHQDKIKGYMPPNCTYTAYDANPDLNRYADVRCIEETRVVLKNHDRDYIHASWMRMPGKDQSTYITTQGPLPETLSDFWHMIYQEKIAYVLMLCTLFEGGVEKCALYYPEKLGEVVKFGKYEITLTECKEEAIAGTIWNALTVTNTEDASSEPLYMNHVQVPWWPDQLAPEDARPMIELYKWVKKVNPKETPICVHCSAGVGRTATFVGIDYATIRIMENPNIEMLDIVREMRAMRFQAVQSHMQFLFLYVVLMEYFIGEGVVERTGRVDTFMTQYKKHAQKKLAKRAAQNQQGEKLAAEEKEKDKVKV
MSEYNPCLDCGACCGYFRVSFFWGECQSAGGVVPDDLVVQINPTRVAMIGTDAKPCRCVSLQGEIGKEVACTIYANRSSPCREFDASWEGGVHNPSCDDARAAYGLPPLTPPEANEPHWPDDGAEVALEHHHHHH
GAMGSEESLKHATRIIDEVVSKFLDDLGNAKSHLMSLYSACSSEVPPGPVDQKFQSIVIGCALEDQKKIKRRLETLLRNIDNSDKAIK
MSLTDNKTVPNGAPILYIVPTPIGNLGDITQRALDVLASVDMIAVEDTRHTGKLLAHFNISTKTFALHDHNEQQKAQVLVDKLLSGLSIALVSDAGTPLISDPGYHLVTQCRQAGVKVVPLPGPCAVITALSASGLPSDSFSFEGFLPAKSKARKDKLLEIAKVSRTCIFYESPHRICESLQDMLDVLGGEREVVLARELTKTFETIQGMPLAELITWIAEDDNRKKGEMVLLVHGYRDAGEQQLPDEALRTLTILTKELPLKKAAALVAEIHQLKKNALYKWGLENLGEEGHHHHHH
MSLSSLGEELETKISEEVGFKPLGIKRILPAASTKLPFASLDNFAIDNHNNKYAAASGELLICGDLQKLREYVTNDNEEDNYEPEYKHEISNIIALKFMNGKLILVTKSGRICEYSTENLNQELMNHELKLDLVSVKTLPSKIIMLDSSNVLKGLSLSNLNLENIAENISSFDVLYDKLVYISVLKDIYVSDTISNGVNKEIILPESLSEELDDGYEALDIKILSENEYFVVFGNNVSPDESDPSYDHKTYVVSQKEESVVYQETFDIAPAFASVLRYPCYYNVILPGIFEEDKNVNIIGSATSSEISVWDSVNVVQPDQDSERAVFPISKETDEDTTPIGMCLDFSTVGEIPEPCPGVDNTDSLPLVYSLTNEGFLQINGFYHTGLIKAGKYDIKLLGERIYSIYEQDGGEVEEGHHHHHH
MNLEPPKAECRSATRVMGGPCTPRKGPPKCKQRQTRQCKSKPPKKGVQGCGDDIPGMEGCGTDITVICPWEACNHCELHELAQYGIC
